Read-outs that look alike come from different tables or passages of the source.

The results in this text go back to publication PMC9381132 (Molecular Cancer Therapeutics, 2022).

Experiment [1] addresses T1, untagged human LY6G6D extracellular domain (construct used for structural studies) (human).
T1 chain: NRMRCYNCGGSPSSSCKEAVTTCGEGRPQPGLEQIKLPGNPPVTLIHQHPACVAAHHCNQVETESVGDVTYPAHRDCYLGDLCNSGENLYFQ
As to the kind of experiment: SEC-MALS. (SEC sorts molecules by how far they enter the pores of the column.)

In experiment [2] the target is T2, human LY6G6D (recombinant protein of the BIAcore kinetics and of the epitope binning) (Homo sapiens, UniProt O95868). The experiment in a line: SPR. (In general: SPR reads the build-up and loss of mass on a sensor chip optically.)
In experiment [3] the target is T2, human LY6G6D (recombinant protein of …). The experiment in a line: SPR. The source holds these as a separate data set.

B1: 1G4 Fab (Fab, V domains shown)
VH: EVQLQQSGPELVKPGASVKMSCKASGYTFTTYVMHWVQQKPGQGLEWIGYINPYNDGTKYNEKFKGKATLTSDTSSSTAYMELSSLTSDDSAVYYCGRRNFDYWGQGTLVTVSS
VL: DILMTQSPSSLTVSAGEKVTMSCKSSQSLLLSGNQENYLAWHQQKPGRSPKTLITWASTRISGVSDRFIGSGSGTDFTLTINSVQAEDLAVYYCQQSYSAPYTFGQGTKVEIK
As a reminder, the stoichiometry N is a count of units in the complex or per binding partner. As for B1, the “stoichiometry N” value in experiment [1] turned out to be 1. In addition, in experiment [2], the binding result is listed as “binds”.

B2: anti-LY6G6D murine mAb clone 1G4 (antibody, V domains shown)
VH: B1 VH
VL: B1 VL
Regarding B2, the binding result in experiment [3] is reported as “binds”.
